Data on 1 substance can be found in paper doi:10.1101/305789.

By stoichiometry N is commonly meant the number of molecules, sites or subunits per partner or assembly.

“And” between values parts separate entries of the source, which are not always exact repeats. Identical values can stand only once.

The assay concerns the target Flag-tagged tomato PCNA (Proliferating cell nuclear antigen) (Solanum lycopersicum). Kind of assay: western blot of anti-Flag immuno-purified protein. A general note: Immunoblotting shows a protein as a band on a membrane.

With “Flag-tagged tomato PCNA (Proliferating cell nuclear antigen) (natural protein)”, the stoichiometry N was 2 and 3.
